Where a chain is given by its changes, count along the chain named. Names may count otherwise.
B1: FadD13 mutant A302G, N-terminal 6x histidine tagged (enzyme)
chain: MKNIGWMLRQRATVSPRLQAYVEPSTDVRMTYAQMNALANRCADVLTALGIAKGDRVALLMPNSVEFCCLFYGAAKLGAVAVPINTRLAAPEVSFILSDSGSKVVIYGAPSAPVIDAIRAQADPPGTVTDWIGADSLAERLRSAAADEPAVECGGDDNLFIMYTSGTTGHPKGVVHTHESVHSAASSWASTIDVRYRDRLLLPLPMFHVAALTTVIFSAMRGVTLISMPQFDATKVWSLIVEERVCIGGAVPAILNFMRQVPEFAELDAPDFRYFITGGAPMPEALIKIYAAKNIEVVQGYGLTESCGGGTLLLSEDALRKAGSAGRATMFTDVAVRGDDGVIREHGEGEVVIKSDILLKEYWNRPEATRDAFDNGWFRTGDIGEIDDEGYLYIKDRLKDMIISGGENVYPAEIESVIIGVPGVSEVAVIGLPDEKWGEIAAAIVVADQNEVSEQQIVEYCGTRLARYKLPKKVIFAEAIPRNPTGKILKTVLREQYSATVPK
notes: not shown: His6, N-terminal, kept
B2: FadD13 mutant D382A, N-terminal 6x histidine tagged (enzyme)
chain: B1 chain with G302A, D382A
notes: as for B1

Molecular target: the molecule itself
Test: native gel or EMSA

Row | Protein | stoichiometry N | binding result
1 | B1 | 2 | –
2 | B2 | – | binds
